The assay concerns the target MHC class I (framework determinant) on human tumor cells of patient 1C.

Take MAb w6/32 (antibody): the inhibition of lysis of autologous 1C tumor cells in a 4-hour 51Cr release assay turned out to be 5 % lysis.
